Residue numbers refer to the chain shown, from its start.

The source of these data is US20260258124A1 (CIMEIO THERAPEUTICS, published 2026).

The labels stand for the following.
B1: Castor (antibody, V domains shown)
VH: QVQLVQSGAEVKKPGASVKVSCKASGYTFTSYNMHWVRQAPGQGLEWMGVIYSGNGDTSYNQKFKGRVTMTTDTSTSTAYMELRSLTSDDTAVYYCARERDTRFGNWGQGTLVTVSA
VL: EIVLTQSPSSLSASVGDRVTITCRASESVDIYGNSFMHWYQQKPGKAPKLLIYLASNLESGVPSRFSGSGSGTDFTLTISSLQPEDFATYYCQQENEDPYTFGQGTKLEIKR
notes: IgG; also called VH1/VL1.11
B2: Jungfrau (antibody, V domains shown)
VH: B1 VH with N55S
VL: EIVLTQSPSSLSASVGDRVTITCRASESVDIYGNSFMHWYQQKPGKAPKLLIYLASNLESGVPSRFSGSGSGTDFTLTISSLQPEDFATYYCQQNNEDPYTFGQGTKLEIK
notes: IgG; also called VH1.2/VL1
B3: Alphubel (antibody, V domains shown)
VH: B1 VH
VL: B1 VL with E95N, N96K
notes: IgG; also called VH1/VL1.13
B4: Aletschhorn (antibody, V domains shown)
VH: B1 VH
VL: B1 VL with E95N, D98P
notes: IgG; also called VH1/VL1.14
B5: Dent Blanche (antibody, V domains shown)
VH: B1 VH
VL: B1 VL with N34F, E95N
notes: IgG; also called VH1/VL1.6
B6: Nadelhorn (antibody, V domains shown)
VH: B1 VH
VL: B1 VL with N34Y, E95N
notes: IgG; also called VH1/VL1.8
B7: Dirruhorn (antibody, V domains shown)
VH: B1 VH
VL: B1 VL with N34Y, E95N, N96K, D98E
notes: IgG; also called VH1/VL1.18; VH1/VH1.18
B8: Parrot (antibody, V domains shown)
VH: B1 VH
VL: B1 VL with N34K, E95N
notes: IgG; also called VH1/VL1.5
B9: Finsteraarhor (antibody, V domains shown)
VH: B1 VH
VL: B1 VL with E95R
notes: IgG; also called VH1/VL1.10; VH1/LC1.10
B10: Ludwigshöhe (antibody, V domains shown)
VH: B1 VH
VL: B1 VL with N34E, E95N
notes: IgG; also called VH1/VL1.7
B11: Schreckhorn (antibody, V domains shown)
VH: B1 VH
VL: B1 VL with N34Y, E95N, D98E
notes: IgG; also called VH1/VL1.16
B12: Täschhorn (antibody, V domains shown)
VH: B1 VH
VL: B1 VL with N34R, E95N
notes: IgG; also called VH1/VL1.3
B13: Lagginhorn (antibody, V domains shown)
VH: B1 VH with N55S
VL: B1 VL with N34E, E95N, D98E
notes: IgG; also called VH1.2/VL1.17
B14: Breithorn (antibody, V domains shown)
VH: B1 VH
VL: B1 VL with E95N, D98E
notes: IgG; also called VH1/VL1.15; VH1/LC1.15
B15: Grand Combin (antibody, V domains shown)
VH: B1 VH
VL: B1 VL with E95G
notes: IgG; also called VH1/VL1.9
B16: Dom (antibody, V domains shown)
VH: B1 VH with K12R, V20L, M70L, T72R, A79V, R84S, T87R, D89E
VL: B2 VL
notes: IgG; also called VH3/VL1; HC3 LC1
B17: HC2 LC2 (antibody, V domains shown)
VH: B1 VH with Q6E, V20L, G44R, M70I, T72V, T74K, T76A, R84S, T87R, D89E
VL: B2 VL with E1D, L4M, S10T, D74E, E85D
notes: IgG; also called VH2/VL2
B18: HC3 LC2 (antibody, V domains shown)
VH: B1 VH with K12R, V20L, M70L, T72R, A79V, R84S, T87R, D89E
VL: B2 VL with E1D, L4M, S10T, D74E, E85D
notes: IgG; also called VH3/VL2
B19: HC3 LC5 (antibody, V domains shown)
VH: B1 VH with K12R, V20L, M70L, T72R, A79V, R84S, T87R, D89E
VL: B2 VL with E1D, V3Q, L4M, S35A, N95A, D98E, Q104G
notes: IgG; also called VH3/VL5
B20: HC3 LC3 (antibody, V domains shown)
VH: B1 VH with K12R, V20L, M70L, T72R, A79V, R84S, T87R, D89E
VL: DIVMTQSPSTLSASVGDRVTITCRASESVDIYGSSFMHWYQQKPGQPPKLLIYLASNLESGVPSRFSGSGSGTEFTLTISSLEADDVATYYCQQNNEDPYTFGGGTKLEIK
notes: IgG; also called VH3/VL3
B21: HC2 LC3 (antibody, V domains shown)
VH: B1 VH with Q6E, V20L, G44R, M70I, T72V, T74K, T76A, R84S, T87R, D89E
VL: B20 VL
notes: IgG; also called VH2/VL3
B22: HC2 LC5 (antibody, V domains shown)
VH: B1 VH with Q6E, V20L, G44R, M70I, T72V, T74K, T76A, R84S, T87R, D89E
VL: B2 VL with E1D, V3Q, L4M, S35A, N95A, D98E, Q104G
notes: IgG; also called VH2/VL5
B23: HC5 LC2 (antibody, V domains shown)
VH: EVQLVQSGAEVKKPGESLKISCKGSGYTFTSYNMHWVRQMPGKGLEWMGVIYSGNADTSYNQKFKGQVTISADKSISTAYLQWSSLKASDTAMYYCARERDTRFGNWGQGTLVTVSA
VL: B2 VL with E1D, L4M, S10T, D74E, E85D
notes: IgG; also called VH5/VL2
B24: HC5 LC5 (antibody, V domains shown)
VH: B23 VH
VL: B2 VL with E1D, V3Q, L4M, S35A, N95A, D98E, Q104G
notes: IgG; also called VH5/VL5
B25: Liskamm (antibody, V domains shown)
VH: B23 VH
VL: B2 VL
notes: IgG; also called VH5/VL1; HC5 LC1
B26: HC5 LC3 (antibody, V domains shown)
VH: B23 VH
VL: B20 VL
notes: IgG; also called VH5/VL3
B27: Signalkuppe (antibody, V domains shown)
VH: B1 VH
VL: B20 VL
notes: IgG; also called VH1/VL3; HC1 LC3
B28: HC2 LC1 (antibody, V domains shown)
VH: B1 VH with Q6E, V20L, G44R, M70I, T72V, T74K, T76A, R84S, T87R, D89E
VL: B2 VL
notes: IgG; also called VH2/VL1
B29: Zumstein (antibody, V domains shown)
VH: B1 VH
VL: B2 VL with E1D, L4M, S10T, D74E, E85D
notes: IgG; also called VH1/VL2; HC1 LC2
B30: HC1 LC5 (antibody, V domains shown)
VH: B1 VH
VL: B2 VL with E1D, V3Q, L4M, S35A, N95A, D98E, Q104G
notes: IgG; also called VH1/VL5

T1 sequence (P10721 26-524 limits assumed): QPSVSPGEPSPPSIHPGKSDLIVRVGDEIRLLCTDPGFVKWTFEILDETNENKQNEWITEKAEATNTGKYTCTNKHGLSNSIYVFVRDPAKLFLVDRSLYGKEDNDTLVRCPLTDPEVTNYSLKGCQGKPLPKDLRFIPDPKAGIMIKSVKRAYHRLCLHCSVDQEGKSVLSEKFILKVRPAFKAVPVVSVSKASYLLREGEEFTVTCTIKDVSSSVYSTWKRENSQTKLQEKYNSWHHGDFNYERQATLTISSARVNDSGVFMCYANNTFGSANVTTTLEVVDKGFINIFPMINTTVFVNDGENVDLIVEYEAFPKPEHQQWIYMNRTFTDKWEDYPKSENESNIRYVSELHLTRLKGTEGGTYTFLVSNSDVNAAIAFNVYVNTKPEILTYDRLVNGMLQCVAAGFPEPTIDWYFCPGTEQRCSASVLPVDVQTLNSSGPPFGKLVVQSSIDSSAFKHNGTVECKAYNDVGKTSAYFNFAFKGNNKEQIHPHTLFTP

One assay concerns the target T1, human recombinant CD117 (c-Kit) from Sino Biological (Catalog No. 11996-H08H) (human, UniProt P10721 26-524).
T1 construct: also called soluble antigen
The assay is described as follows: BLI Octet, set-up as in Example 2. As to the method:
(§1) In the main experiment kinetic assays were performed by first capturing IgG using anti-human Fc biosensors. The mAb capture biosensors were then submerged in wells containing different concentrations of antigen (association stage) followed by a dissociation step in running buffer. To allow for double reference correction, IgG-captured sensors were dipped into wells containing only buffer and blank sensors were also dipped into wells containing the antigen. This referencing provided a means of compensating for both the natural dissociation of the capture IgG and non-specific binding of the antigen to the sensor surface. Steps were performed at 25° C. at a constant shaking of 1000 rpm. New sensors were used for each sample. Dissociation rate constants (Kd) were calculated using the ForteBio Data Analysis software. All consumables used were those recommended by ForteBio.
(§2) All samples were diluted in freshly prepared running buffer. Antibody variants were immobilized onto the surface of a series of biosensors using the capture methods described. Antigen was passed over the surface to generate a binding response. Binding data for the IgG:antigen interactions were collected at 25° C. on the biosensors. A dilution series of the antigen was used in the association step, in order to fit results globally and get the best values for ka, kd, and KD. The response data for the binding of antigen to the surface immobilized IgG were fitted to a 1:1 binding model. HC0 LC0 refers to murine SR-1.
Consider B1, for which the Kd worked out at 2.2 nM.
On the same count and under the same terms, with B2 the figure was 1.3 nM; with B3, 1.4 nM.
On the same count and under the same terms, with B4 the figure was 1.4 nM; with B5, 1.2 nM; with B6, 0.2 nM.
Regarding B7, the Kd was 0.56 nM.
In the case of B8, the Kd was determined as 3.7 nM.
Still for that read-out and setting: with B9 the figure was 4 nM.
On the same count and under the same terms, with B10 the figure was 0.2 nM; with B11, 0.13 nM; with B12, 3.5 nM.
Same read-out and setting: with B13 the figure was 0.44 nM.
On to B14, for which the Kd was found to be 0.4 nM.
In the case of B15, the Kd worked out at 1.3 nM.

Another assay deals with T1, human recombinant CD117 (c-Kit) from …. The assay is described as follows: BLI Octet, IgG on anti-human Fc sensor, soluble CD117, 1:1 fit. As to the method:
IgG antibodies were immobilized on biosensors using suitable capture surfaces and binding of soluble antigen to immobilized antibodies was monitored by BLI (Octet). The resulting sensorgrams were analyzed using the supplied software (Fortebio). As antigen human recombinant CD117 (c-Kit) from Sino Biological was used (Catalog No. 11996-H08H, Lot #LC14SE0812). As a pre-experiment a series of experiments was performed to optimize assay parameters. The following parameters were selected:
as §1, §2
For B16, the Kd came to 1.96 nM, the koff was determined as 0.000971 s⁻¹ and the kon stood at 495000 M⁻¹ s⁻¹.
B17: the Kd is 10.8 nM, the koff came out at 0.00483 s⁻¹ and the kon amounted to 449000 M⁻¹ s⁻¹.
B18: the Kd came to 3.09 nM, the koff is 0.00178 s⁻¹ and the kon amounted to 577000 M⁻¹ s⁻¹.
For B19, in that order: 26.2 nM, 0.0187 s⁻¹ and 715000 M⁻¹ s⁻¹.
The matching figures for B20: 3.28 nM, 0.00216 s⁻¹ and 658000 M⁻¹ s⁻¹.
For B21, in that order: 8.03 nM, 0.00458 s⁻¹ and 571000 M⁻¹ s⁻¹.
B22: the dissociation constant Kd worked out at 33.8 nM, the koff is 0.0214 s⁻¹ and the kon came out at 632000 M⁻¹ s⁻¹.
For B23, the Kd stood at 3.61 nM, the koff was determined as 0.0017 s⁻¹ and the kon worked out at 472000 M⁻¹ s⁻¹.
On to B24, for which the Kd is 29.4 nM, the koff amounted to 0.0184 s⁻¹ and the kon is 626000 M⁻¹ s⁻¹.
The matching figures for B25: 1.92 nM, 0.000961 s⁻¹ and 500000 M⁻¹ s⁻¹.
As to B26, the Kd was found to be 3.67 nM, the koff amounted to 0.00216 s⁻¹ and the kon was 589000 M⁻¹ s⁻¹.
For B27, in that order: 1.09 nM, 0.000727 s⁻¹ and 670000 M⁻¹ s⁻¹.
Regarding B28, the Kd was found to be 5.16 nM, the koff worked out at 0.00206 s⁻¹ and the kon turned out to be 399000 M⁻¹ s⁻¹.
For B29, in that order: 1.16 nM, 0.000668 s⁻¹ and 576000 M⁻¹ s⁻¹.
The matching figures for B30: 8.79 nM, 0.00552 s⁻¹ and 628000 M⁻¹ s⁻¹.
